{
  "source": "patent US20260217797A1",
  "key": {"[1]": {"target": "SARS-CoV-2 B.1.1.7 N501Y (Alpha) RBD (SARS-CoV-2) (UniProt P0DTC2)", "test": "Octet BLI single point, monovalent"}, "[2]": {"target": "SARS-CoV-2 L452R RBD (Epsilon) (SARS-CoV-2) (UniProt P0DTC2)", "test": "Octet BLI single point, monovalent"}},
  "data": [
    {"substance": "RGN10933 (antibody)", "values": [
      {"measurement": "Kd", "setting": "[1]", "value": 6.57, "unit": "nM"},
      {"measurement": "Kd", "setting": "[2]", "value": 9.52, "unit": "nM"}
    ]},
    {"substance": "RGN10987 (antibody)", "values": [
      {"measurement": "Kd", "setting": "[1]", "value": 15.1, "unit": "nM"},
      {"measurement": "Kd", "setting": "[2]", "value": 17.4, "unit": "nM"}
    ]}
  ]
}
